What was measured:
[1] = system: tumorlets (neoplastic Schwann cell proliferation areas); test: Quantification of tumorlets in Nf2flox;Postn-Cre mice; format: in vivo; settings: 20 μg rhNRG1 per kg bodyweight ip for three months, vs control animals
Text: PFA-fixed tissue blocks derived from rhNRG1 and control treated animals containing lower spinal cord, lumbar dorsal root ganglions (DRG) as well as distal nerve proportions were cut in 4 planes per animal. Photographs were subsequently scanned and analyzed using the NanoZoomer Digital Pathology Software. The total area occupied by peripheral nerve tissue and dorsal root ganglion (DRG) tissue in mm^2 was quantified separately. Likewise, neoplastic tissue regions were identified and quantified separately for peripheral nerves and DRG areas. All quantitative analyses of tumorlets in Nf2flox;Postn-Cre mice were performed in blinded manner.
The in vivo results on the efficacy of rhNRG1 on schwannoma growth was tested as described in Example 1 however in a another animal model of schwannoma disease, the well-established Nf2flox;Postn-Cre mouse line, wherein a conditional Nf2 gene deletion is facilitated by the Periostin-Cre driver line (Nf2flox;Postn-Cre).
In this model all animals spontaneously develop spinal, peripheral and cranial nerve schwannomas over time (Gehlhausen et al., 2015). 4-month-old mutant Nf2flox;Postn-Cre animals as well as their corresponding wildtype littermates were either treated with saline control injections or intraperitoneal rhNRG1 administration for three months (FIG. 8A). […]

[2] = Serum levels of rhNRG1 after intraperitoneal injection (Nrg1 ELISA kit); format: in vivo, mice; settings: single intraperitoneal injection, 10 μg per kg body weight, pooled blood
Method: To measure peripheral exposure of rhNRG1 in mice, up to 50 μl blood was sampled from mice for four consecutive days via bilateral retro-orbital plexus and facial veins. For serum preparation, collected blood was allowed to clot at room temperature for 1 hour before spinning for 20 minutes at 2,000 g.
Blood serum levels of rhNRG1 before and after intraperitoneal injection were measured using a commercially available kit according to manufacturer's instructions (#ab100614; Abcam; USA).
Crush injury-induced schwannoma formation was provoked in 2-month-old mice. Subsequently, administration of rhNRG1 was performed both systemically (by intraperitoneal injection) and locally (by rhNRG1-containing absorbable collagen sponges (ACS)). Vehicle saline solution was given to control animals. In order to assess the bioavailability of intraperitoneally injected rhNRG1 (10 μg per kg body weight), rhNRG1 serum levels were evaluated. Strikingly, rhNRG1 levels reached a peak 2 days after injection (FIG. 1B). […] A significant decline in body weight at the chosen dosage was, however, not observed (FIG. 1C).

Schwann cells = test: Neuropathological assessment (HE, immunolabelling) of sciatic nerve cross sections 3 months after crush injury; format: in vivo, P0-Cre;Nefh-Cre;Nf2fl/+ mice; settings: KO mice
Text: For histological workup, paraformaldehyd fixed nerve samples were embedded in paraffin, cut at the site of the largest diameter and mounted as a tissue micro array. 4 μm thick cross sections were used for H&E staining and immunohistochemical labelling of S100 (1:8000; Dako), P0 (1:300; Bioss Antibodies), phospho-c-Jun (Ser73; 1:500; Cell Signalling; 8752), ErbB2 (1:500; Cell Signaling) and Arginase-1 (1:200; Santa Cruz; H-52) in an automated Ventana stainer (Ventana Medical Systems, USA) using standard antigen retrieval protocols (CC1st, no pretreatment for S100-protein). Onion-bulbs and schwannoma-like structures were assessed in H&E stained slides.
Immunohistochemistry was performed as described in (Schulz et al., 2010). Briefly, paraffin-embedded, longitudinal sections of sciatic nerves were rehydrated, boiled in 10 mM sodium citrate buffer (pH9) for 30 min in a microwave and subsequently treated with 0,5% Triton X-100 for 10 min. Sections incubated in 0.2% gelatine and 2% goat serum diluted in PBS at least 2 h. Sections submersed in the primary antibody solution overnight at 4° C. The following primary antibodies were used: Myelin protein zero (P0; 1:200; Abcam; ab39375), neurofilament (1:200; BioLegend; SMI312), myelin basic protein (MBP; 1:500; Millipore; MAB384)), Ki-67 (1:200; eBioscience; Clone: SolA15), lba-1 (1:200; Wako), and p75 (1:200; Merck Millipore; AB 1554). After vigorous washings, sections incubated with secondary antibody solution (Alexa488-, Alexa546- or Alexa647-conjugated anti-mouse, -rat, -chicken and -rabbit antibodies, 1:500 in PBS, Invitrogen) at room temperature for 2 h. Finally specimens washed in PBS, counterstained using DAPI (1 μg/ml PBS, 10 min) dehydrated and embedded. DAPI-stained cell nuclei or lba-1-positive cells were counted using ImageJ plugin ‘Particle Analysis’ from images acquired with 10× magnification after standardized background reduction and threshold setting.
Sciatic nerve crush injury was performed on WT and Nf2flox;P0-Cre;Nefh-Cre mutant animals as described in Example 1. The Nf2flox;P0-Cre;Nefh-Cre mutant animals were intraperitoneally injected every day with 10 μg of rhNRG1 per kg body weight (KO rhNRG1). For a control a PBS solution was systemically administered to WT animals and Nf2flox;P0-Cre;Nefh-Cre mutant animals (WT vehicle and KO vehicle). Sciatic nerve lysates were taken from animals after 3 month of treatment upon which immunochemistry was performed as described in Example 1.

[3] = systemic rhNRG1, 3 months after crush injury
[4] = systemic rhNRG1 vs saline-treated same genotype

B1: rhNRG1: EGF domain containing 7 kDa protein of recombinant human Neuregulin 1, purchased from Reprokine (#RKQ02297) (protein, listed as Homo sapiens)
chain: SHLVKCAEKEKTFCVNGGECFMVKDLSNPSRYLCKCPNEFTGDRCQNYVMASFYKHLGIEF
tumorlet fraction (area occupied by tumorlets relative to total nerve tissue area) [1]: significant reduction
time of peak rhNRG1 serum level after injection [2]: 2 days
number of immature Schwann cells (p75 staining) (Schwann cells; rhNRG1 injections): relevantly decreased
immunoreactivity of schwannoma marker CPI-17 (Schwann cells; rhNRG1 vs KO control injections): relevantly lower
S100 and MPZ immunoreactivity (Schwann cells; [3]): restricted to Schwann cells with myelinating phenotype
nerve regeneration (histology) (Schwann cells; [3]): almost regular regeneration
expression of Neuregulin1 (immunolabelling) (Schwann cells; [4]): greatly reduced
expression of receptor tyrosine kinase ErbB2 (immunolabelling) (Schwann cells; [4]): greatly reduced
